Where “and” joins values, the source holds several entries; their conditions need not be identical. Equal values may be shown once.
T1: MBP-fused full-length SIX3 (SIX3 without aa 1-78) (human, UniProt O95343 79-332)
T1 construct: SIX3, human, without the N-terminal homopolymeric region (aa 1-78, GenBank AF049339); A TEV site lies between the tags and SIX3; also called MBPSIX3; source: E. coli BL21Star (DE3), purified (Ni-NTA HisTrap HP, size exclusion); not shown: MBP, N-terminal, kept
T1 sequence (looked up): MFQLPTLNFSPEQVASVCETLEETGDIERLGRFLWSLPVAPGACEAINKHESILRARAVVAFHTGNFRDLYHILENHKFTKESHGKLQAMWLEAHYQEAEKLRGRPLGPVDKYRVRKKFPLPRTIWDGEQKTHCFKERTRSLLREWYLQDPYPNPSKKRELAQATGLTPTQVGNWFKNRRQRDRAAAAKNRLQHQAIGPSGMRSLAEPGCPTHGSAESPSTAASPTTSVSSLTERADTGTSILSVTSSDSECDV

B1: GEMININ (human, full-length, MBP tag removed) (natural protein, UniProt O75496 1-209, looked up)
chain: MNPSMKQKQEEIKENIKNSSVPRRTLKMIQPSASGSLVGRENELSAGLSKRKHRNDHLTSTTSSPGVIVPESSENKNLGGVTQESFDLMIKENPSSQYWKEVAEKRRKALYEALKENEKLHKEIEQKDNEIARLKKENKELAEVAEHVQYMAELIERLNGEPLDNFESLDNQEFDSEEETVEDSLVEDSEIGTCAEGTVSSSTDAKPCI
notes: The His6 tag lies with MBP at the N-terminus, before the TEV site of pETMBP_1, so it was probably removed with MBP; also called GMNN; source: E. coli BL21Star (DE3), purified (Ni-NTA HisTrap HP, TEV digestion, size exclusion); not shown: MBP, N-terminal, cleaved

How the values were obtained:
Settings in all cases: both partners purified
[1] = target: T1, MBP-fused full-length SIX3 (SIX3 …); assay: SPR; Biacore T200, GEMININ (1370 RU) immobilised by amine coupling on a CM5 chip; MBP fusions or MBP alone as analyte; 25 °C; PBS-TCEP (3.5 mM TCEP) with 350 mM NaCl (results: 437 mM NaCl); 30 μl/min; apparent KD from a steady-state fit
[2] = target: T1, MBP-fused full-length SIX3 (SIX3 …); assay: ITC; Nano ITC LV, 25 °C, PBS-TCEP with 300 mM NaCl (results: 437 mM NaCl); 200 μM GEMININ (or its coiled-coil region) in the syringe, 10 μM MBPSIX3 (or MBP alone) in the cell; independent binding sites model; GEMININ-to-MBP control subtracted
[3] = target: B1; assay: SPR; Biacore T200, GEMININ (1370 RU) immobilised by amine coupling on a CM5 chip; MBP fusions or MBP alone as analyte; 25 °C; PBS-TCEP (3.5 mM TCEP) with 350 mM NaCl (results: 437 mM NaCl); 30 μl/min; apparent KD from a steady-state fit

Kd [1] | Kd [2] | dH [2] | stoichiometry N [2] | Kd [3] | Binder
3.19 µM | 3.4 µM and 3.41 µM | -75.8 kcal/mol | 0.55 | – | B1
– | – | – | – | 19.5 µM and 19.6 µM | MBP-fused SIX domain of SIX3 (domain or fragment, Assayed as an N-terminal His6-MBP fusion (left out). Start follows the printed deletion of aa 1-78; end is derived from the stop-codon primer (T-I-W-D-stop), just before the homeobox at 206.) MFQLPTLNFSPEQVASVCETLEETGDIERLGRFLWSLPVAPGACEAINKHESILRARAVVAFHTGNFRDLYHILENHKFTKESHGKLQAMWLEAHYQEAEKLRGRPLGPVDKYRVRKKFPLPRTIWD

Source: publication PMC6895700, “SIX3 and SIX6 interact with GEMININ via C-terminal regions” (Biochemistry and Biophysics Reports, 2019)
